Reference: doi:10.1101/2023.06.28.546941 (bioRxiv, 2023)

T1: MEF2 MADS plus MEF2 domain (amino acids 1-90) (Drosophila, UniProt P40791 1-90)
T1 sequence (looked up): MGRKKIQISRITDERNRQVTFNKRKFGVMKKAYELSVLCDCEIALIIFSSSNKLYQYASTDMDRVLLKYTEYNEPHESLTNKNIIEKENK

T2: MEF2 (UniProt P40791 1-540)
T2 sequence: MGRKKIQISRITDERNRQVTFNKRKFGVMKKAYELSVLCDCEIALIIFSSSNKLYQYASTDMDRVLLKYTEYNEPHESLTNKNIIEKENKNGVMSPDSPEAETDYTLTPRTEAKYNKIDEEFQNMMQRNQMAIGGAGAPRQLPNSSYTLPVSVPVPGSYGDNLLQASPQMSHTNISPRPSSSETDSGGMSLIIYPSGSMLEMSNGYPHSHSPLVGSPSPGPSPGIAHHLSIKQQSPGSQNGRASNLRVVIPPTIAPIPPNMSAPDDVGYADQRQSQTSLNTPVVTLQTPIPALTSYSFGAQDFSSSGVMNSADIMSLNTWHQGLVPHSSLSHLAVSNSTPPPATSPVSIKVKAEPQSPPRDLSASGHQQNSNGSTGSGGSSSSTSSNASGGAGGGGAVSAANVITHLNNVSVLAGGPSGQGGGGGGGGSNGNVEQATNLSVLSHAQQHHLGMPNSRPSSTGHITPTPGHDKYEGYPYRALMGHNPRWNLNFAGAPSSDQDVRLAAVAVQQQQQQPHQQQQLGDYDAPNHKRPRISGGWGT

B1: MBP-fused Tin homeodomain (amino acids 301-360) (domain or fragment, Drosophila, UniProt P22711 301-360, looked up)
chain: KRKPRVLFSQAQVLELECRFRLKKYLTGAEREIIAQKLNLSATQVKIWFQNRRYKSKRGD
B2: M1+T1 M1mut (dsDNA)
DNA 1: GGTGTCGTCTGTTGAAGTGTGAACATTAATGCCTAGATCTAAAGCGATAAAA
DNA 2: GGTTTTATCGCTTTAGATCTAGGCATTAATGTTCACACTTCAACAGACGACA

Assays:
[1] = biological target: T1, MEF2 MADS plus MEF2 domain (amino acids …); assay: pull-down
MEF2 = biological target: T2, MEF2; assay: competition

Binder	binding result [1]	binding result (MEF2)
B1	binds	–
B2	–	no binding
